According to US5460942A, “The catalytic moiety of the glucose-6-phosphatase system: the gene and protein and related mutations” (The United States of America as represented by the …, priority 1993, dated 1995):

Key:
[1] = target: human liver microsomal G-6-Pase (Homo sapiens, UniProt P35575); conditions: read-out: Vanadate K1; human liver microsomes
Description: (§1) The functional identity of the human G-6-Pase cDNA was studied in a manner similiar to that described above with the murine G-6-Pase. Detailed biochemical studies were performed on microsomal preparations isolated from COS-1 cells transiently transfected with the phG-6-Pase-1 cDNA and compared with activities in human liver microsomes.

human G-6-Pase = human G-6-Pase (Homo sapiens, UniProt P35575, A192T); conditions: read-out: Vanadate K1; phG-6-Pase-1-transfected COS-1 microsomes
Description: as §1

murine G-6-Pase = target: T1, murine G-6-Pase (Mus musculus, UniProt P35576); conditions: read-out: Ki values for vanadate observed in the present study; both microsomal preparations (transfected COS-1 cells and adult mouse livers)
T1 sequence (P35576 1-357): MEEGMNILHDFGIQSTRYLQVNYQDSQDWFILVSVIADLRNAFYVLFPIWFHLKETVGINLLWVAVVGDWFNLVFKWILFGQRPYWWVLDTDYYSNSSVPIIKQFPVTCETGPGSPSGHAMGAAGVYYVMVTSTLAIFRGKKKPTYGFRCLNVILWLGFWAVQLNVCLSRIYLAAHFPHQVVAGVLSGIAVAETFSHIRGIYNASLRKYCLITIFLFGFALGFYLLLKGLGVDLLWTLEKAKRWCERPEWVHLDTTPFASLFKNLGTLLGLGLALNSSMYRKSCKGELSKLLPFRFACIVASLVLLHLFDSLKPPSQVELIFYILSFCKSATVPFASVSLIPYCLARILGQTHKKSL
Description: COS-1 cells were grown at 37° C. in HEPES-buffered Dulbecco modified minimal essential medium supplemented with streptomycin, penicillin, and 4% fetal bovine serum. […] Mock transfections of COS-1 cultures with the pSVL vector were used as controls.
(§2) Microsomal membranes were isolated by the method of Burchell et al. supra. Samples were taken from either Swiss Webster mice which had been fasted overnight or freshly prepared homogenates of pSVLmG-6-Pase-transfected COS-1 cells. Disrupted microsomal membranes were prepared by incubating intact membranes in 0.2% deoxycholate for 20 min at 0° C.
(§3) Phosphohydrolase activity was determined essentially as described by Burchell et al. Supra. […] Sample absorbance was determined at 820 nm and is related to the amount of phosphate released using a standard curve constructed by a stock of inorganic phosphate solution.

[2] = target: T2, mouse liver microsomal G-6-Pase (Mus musculus, UniProt P35576); test: Phosphohydrolase assay, adult mouse liver microsomes; assay type: biochemical; conditions: competitive inhibitor of glucose-6-P phosphohydrolysis, read-out: Vanadate, Ki
T2 construct: hepatic G-6-Pase activities of microsomes isolated from adult mouse liver; from tissue; host or cells: liver microsomes of fasted Swiss Webster mice
T2 sequence (P35576 1-357): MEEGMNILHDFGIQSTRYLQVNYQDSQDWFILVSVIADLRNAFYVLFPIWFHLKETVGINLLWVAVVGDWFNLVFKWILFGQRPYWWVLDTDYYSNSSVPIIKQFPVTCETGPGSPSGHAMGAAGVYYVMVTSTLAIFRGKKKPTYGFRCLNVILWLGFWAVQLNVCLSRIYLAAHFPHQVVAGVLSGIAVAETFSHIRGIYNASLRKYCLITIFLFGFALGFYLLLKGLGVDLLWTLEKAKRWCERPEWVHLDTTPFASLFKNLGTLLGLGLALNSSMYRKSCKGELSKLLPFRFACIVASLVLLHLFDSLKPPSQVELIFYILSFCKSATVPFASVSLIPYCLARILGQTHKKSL
Description: as §2, §3

[3] = target: glucose-6-P phosphohydrolase activity; conditions: read-out: Ki for vanadate reported; permeable hepatocytes or rat microsomes; cited from earlier work
[4] = substrate: O=P(O)(O)OC[C@H]1OC(O)[C@H](O)[C@@H](O)[C@@H]1O; test: cells, lysate or membranes named; conditions: pH 6.5, 30.0 °C
[5] = substrate: O=P(O)(O)OC[C@H]1OC(O)[C@@H](O)[C@@H](O)[C@@H]1O; test: cells, lysate or membranes named; conditions: other: disrupted adult mouse liver microsomes; mean ± SEM; pH 6.5; 30.0 °C
[6] = Thermal stability of glucose-6-P phosphohydrolase activity (37° C., 10 min, pH 5.0); assay type: biochemical; conditions: for Thermal Stability (enzyme activities remaining after heat treatment): deoxycholate (0.2%) disrupted microsomes
Description: Hepatic G-6-Pase is characterized by its high thermal lability; G-6-Pase is completely inactivated by incubating the microsomal preparation (or homogenate) at pH 5.0 for 10 min at 37° C., Hers, H. G., in Advances in Metabolic Disorders Vol 1 (eds Levine, R., Luft, L.), 1-44 (Academic Press, London, 1964).

[7] = pH profile of glucose-6-P phosphohydrolase activity in disrupted microsomes; assay type: biochemical, mouse
[8] = Carbamyl-P:glucose phosphotransferase activity in disrupted microsomes; assay type: biochemical, mouse; conditions: deoxycholate-disrupted microsomes, linear region of enzyme concentration curves
Description: Phosphotransferase activity was determined by a modification of the method described by Jorgenson and Nordlie, supra. Reaction mixture (10 μl) contained 100 mM HEPES buffer, pH 6.5, 50 mM glucose, […] D-glucose (10^5 cpm/reaction, 256 mCi/mmol, ICN Biochemicals, Irvine, Calif.), 4 mM carbamyl-P, and deoxycholate-disrupted microsomal proteins. […] The samples were then centrifuged at 10,000×g for 5 min, and 2 to 4 μl of supernatant applied to a PEI-cellulose plate (J. T. Baker, Inc., Phillipsburg, N.J.). Glucose-6-P was separated from glucose by thin-layer chromatography developed in water. Spots were quantitated on an AMBIS Radioanalytic Imaging System (San Diego, Calif.).

[9] = Phosphohydrolase activity of site-directed human G-6-Pase mutants in transfected cells; assay type: biochemical; conditions: arginine to cysteine substitution; pSVL constructs in transfected cells
Description: The two outside PCR primers were 01 (5'-[…]-3' (Seq. ID No.:29), nucleotides 77 to 96) and 02 (5'-[…]-3' (Seq. ID No.:30), nucleotides 1153 to 1130). […] 01 and 02 contain an additional XhoI or XbaI linker, respectively. […] The amplified fragments were digested with XhoI and XbaI and ligated into a pSVL vector. All constructs were confirmed by DNA sequencing.

Molecule: [O]=[V]([OH])([OH])[OH] [Vanadate]
- Ki [1]: 1610 µM
- Ki (human G-6-Pase): 1680 µM
- Ki (murine G-6-Pase): 330 to 340 µM
- Ki [2]: 330 µM
- Ki [3]: 1.5 µM

B1: mouse liver microsomal G-6-Pase (Mus musculus) (protein)
chain: MEEGMNILHDFGIQSTRYLQVNYQDSQDWFILVSVIADLRNAFYVLFPIWFHLKETVGINLLWVAVVGDWFNLVFKWILFGQRPYWWVLDTDYYSNSSVPIIKQFPVTCETGPGSPSGHAMGAAGVYYVMVTSTLAIFRGKKKPTYGFRCLNVILWLGFWAVQLNVCLSRIYLAAHFPHQVVAGVLSGIAVAETFSHIRGIYNASLRKYCLITIFLFGFALGFYLLLKGLGVDLLWTLEKAKRWCERPEWVHLDTTPFASLFKNLGTLLGLGLALNSSMYRKSCKGELSKLLPFRFACIVASLVLLHLFDSLKPPSQVELIFYILSFCKSATVPFASVSLIPYCLARILGQTHKKSL
- Km ([4]; other: disrupted adult mouse liver microsomes, mean ± SEM): 680 µM
- Km ([4]; other: intact adult mouse liver microsomes): 3300 µM
- Km [5]: 670 µM

B2: pSVLmG-6-Pase-Transfacted COS: recombinant murine G-6-Pase in microsomes of COS-1 cells transfected with pSVLmG-6-Pase (protein, UniProt P35576 1-357, looked up)
Glucose-6-phosphatase …: MEEGMNILHDFGIQSTRYLQVNYQDSQDWFILVSVIADLRNAFYVLFPIWFHLKETVGINLLWVAVVGDWFNLVFKWILFGQRPYWWVLDTDYYSNSSVPIIKQFPVTCETGPGSPSGHAMGAAGVYYVMVTSTLAIFRGKKKPTYGFRCLNVILWLGFWAVQLNVCLSRIYLAAHFPHQVVAGVLSGIAVAETFSHIRGIYNASLRKYCLITIFLFGFALGFYLLLKGLGVDLLWTLEKAKRWCERPEWVHLDTTPFASLFKNLGTLLGLGLALNSSMYRKSCKGELSKLLPFRFACIVASLVLLHLFDSLKPPSQVELIFYILSFCKSATVPFASVSLIPYCLARILGQTHKKSL
modifications: in COS-1 microsomes
notes: recombinant murine G-6-Pase in microsomes of COS-1 cells transfected with pSVLmG-6-Pase
- Thermal Stability (enzyme activities remaining after heat treatment) ([6]; 37° C. for 10 min at pH 5.0, murine study): 1.6%
- glucose-6-P phosphohydrolase activity after incubation at 37° C. for 10 min at pH 5.0 (in words) ([6]; murine study): abolished
- pH optimum of glucose-6-P phosphohydrolase activity [7]: ~6.5
- Phosphotransferase, Carbamyl-P: Glucose [8]: 0.22 μmol/min/mg of microsomal prot

B3: human G-6-Pase (Homo sapiens; A192T) (protein)
chain: MEEGMNVLHDFGIQSTHYLQVNYQDSQDWFILVSVIADLRNAFYVLFPIWFHLQEAVGIKLLWVAVIGDWLNLVFKWILFGQRPYWWVLDTDYYSNTSVPLIKQFPVTCETGPGSPSGHAMGTAGVYYVMVTSTLSIFQGKIKPTYRFRCLNVILWLGFWAVQLNVCLSRIYLAAHFPHQVVAGVLSGIAVTETFSHIHSIYNASLKKYFLITFFLFSFAIGFYLLLKGLGVDLLWTLEKAQRWCEQPEWVHIDTTPFASLLKNLGTLFGLGLALNSSMYRESCKGKLSKWLPFRLSSIVASLVLLHVFDSLKPPSQVELVFYVLSFCKSAVVPLASVSVIPYCLAQVLGQPHKKSL
- Km ([4]; other: phG-6-Pase-1-transfected COS-1 microsomes): 1770 ± 130 µM

B4: G-6-Pase-Cys^83: human G-6-Pase mutant, arginine 83 changed to cysteine (protein, UniProt P35575 1-357, looked up, variant R83C)
Glucose-6-phosphatase …: MEEGMNVLHDFGIQSTHYLQVNYQDSQDWFILVSVIADLRNAFYVLFPIWFHLQEAVGIKLLWVAVIGDWLNLVFKWILFGQCPYWWVLDTDYYSNTSVPLIKQFPVTCETGPGSPSGHAMGTAGVYYVMVTSTLSIFQGKIKPTYRFRCLNVILWLGFWAVQLNVCLSRIYLAAHFPHQVVAGVLSGIAVAETFSHIHSIYNASLKKYFLITFFLFSFAIGFYLLLKGLGVDLLWTLEKAQRWCEQPEWVHIDTTPFASLLKNLGTLFGLGLALNSSMYRESCKGKLSKWLPFRLSSIVASLVLLHVFDSLKPPSQVELVFYVLSFCKSAVVPLASVSVIPYCLAQVLGQPHKKSL
- G-6-Pase phosphohydrolase activity of mutant [9]: abolished

B5: phG-6-Pase-1-COS: recombinant human G-6-Pase in microsomes of COS-1 cells transiently transfected with phG-6-Pase-1 cDNA (protein, UniProt P35575 1-357, looked up)
Glucose-6-phosphatase …: MEEGMNVLHDFGIQSTHYLQVNYQDSQDWFILVSVIADLRNAFYVLFPIWFHLQEAVGIKLLWVAVIGDWLNLVFKWILFGQRPYWWVLDTDYYSNTSVPLIKQFPVTCETGPGSPSGHAMGTAGVYYVMVTSTLSIFQGKIKPTYRFRCLNVILWLGFWAVQLNVCLSRIYLAAHFPHQVVAGVLSGIAVAETFSHIHSIYNASLKKYFLITFFLFSFAIGFYLLLKGLGVDLLWTLEKAQRWCEQPEWVHIDTTPFASLLKNLGTLFGLGLALNSSMYRESCKGKLSKWLPFRLSSIVASLVLLHVFDSLKPPSQVELVFYVLSFCKSAVVPLASVSVIPYCLAQVLGQPHKKSL
modifications: in COS-1 microsomes
notes: recombinant human G-6-Pase in microsomes of COS-1 cells transiently transfected with phG-6-Pase-1 cDNA
- Thermal Stability (enzyme activities remaining after heat treatment) ([6]; 10 min at 37° C., 50 mM cacodylate buffer pH 5.0, human study): 6.0%
- glucose-6-P phosphohydrolase activity after incubation at 37° C. for 10 min at pH 5.0 (in words) ([6]; human study): virtually abolished

B6: human liver microsomal G-6-Pase (Homo sapiens) (protein)
chain: MEEGMNVLHDFGIQSTHYLQVNYQDSQDWFILVSVIADLRNAFYVLFPIWFHLQEAVGIKLLWVAVIGDWLNLVFKWILFGQRPYWWVLDTDYYSNTSVPLIKQFPVTCETGPGSPSGHAMGTAGVYYVMVTSTLSIFQGKIKPTYRFRCLNVILWLGFWAVQLNVCLSRIYLAAHFPHQVVAGVLSGIAVAETFSHIHSIYNASLKKYFLITFFLFSFAIGFYLLLKGLGVDLLWTLEKAQRWCEQPEWVHIDTTPFASLLKNLGTLFGLGLALNSSMYRESCKGKLSKWLPFRLSSIVASLVLLHVFDSLKPPSQVELVFYVLSFCKSAVVPLASVSVIPYCLAQVLGQPHKKSL
- Km ([4]; other: human liver microsomes): 1710 ± 110 µM

B7: G-6-Pase-Cys^295: human G-6-Pase mutant, arginine 295 changed to cysteine (protein, UniProt P35575 1-357, looked up, variant R295C)
Glucose-6-phosphatase …: MEEGMNVLHDFGIQSTHYLQVNYQDSQDWFILVSVIADLRNAFYVLFPIWFHLQEAVGIKLLWVAVIGDWLNLVFKWILFGQRPYWWVLDTDYYSNTSVPLIKQFPVTCETGPGSPSGHAMGTAGVYYVMVTSTLSIFQGKIKPTYRFRCLNVILWLGFWAVQLNVCLSRIYLAAHFPHQVVAGVLSGIAVAETFSHIHSIYNASLKKYFLITFFLFSFAIGFYLLLKGLGVDLLWTLEKAQRWCEQPEWVHIDTTPFASLLKNLGTLFGLGLALNSSMYRESCKGKLSKWLPFCLSSIVASLVLLHVFDSLKPPSQVELVFYVLSFCKSAVVPLASVSVIPYCLAQVLGQPHKKSL
- G-6-Pase phosphohydrolase activity of mutant [9]: abolished
